Biological target: complement receptor 2 (CR2, CD21) on human follicular dendritic cells (human (endogenous in tonsil FDCs)) (UniProt P20023)
Sequence (P20023 21-1033): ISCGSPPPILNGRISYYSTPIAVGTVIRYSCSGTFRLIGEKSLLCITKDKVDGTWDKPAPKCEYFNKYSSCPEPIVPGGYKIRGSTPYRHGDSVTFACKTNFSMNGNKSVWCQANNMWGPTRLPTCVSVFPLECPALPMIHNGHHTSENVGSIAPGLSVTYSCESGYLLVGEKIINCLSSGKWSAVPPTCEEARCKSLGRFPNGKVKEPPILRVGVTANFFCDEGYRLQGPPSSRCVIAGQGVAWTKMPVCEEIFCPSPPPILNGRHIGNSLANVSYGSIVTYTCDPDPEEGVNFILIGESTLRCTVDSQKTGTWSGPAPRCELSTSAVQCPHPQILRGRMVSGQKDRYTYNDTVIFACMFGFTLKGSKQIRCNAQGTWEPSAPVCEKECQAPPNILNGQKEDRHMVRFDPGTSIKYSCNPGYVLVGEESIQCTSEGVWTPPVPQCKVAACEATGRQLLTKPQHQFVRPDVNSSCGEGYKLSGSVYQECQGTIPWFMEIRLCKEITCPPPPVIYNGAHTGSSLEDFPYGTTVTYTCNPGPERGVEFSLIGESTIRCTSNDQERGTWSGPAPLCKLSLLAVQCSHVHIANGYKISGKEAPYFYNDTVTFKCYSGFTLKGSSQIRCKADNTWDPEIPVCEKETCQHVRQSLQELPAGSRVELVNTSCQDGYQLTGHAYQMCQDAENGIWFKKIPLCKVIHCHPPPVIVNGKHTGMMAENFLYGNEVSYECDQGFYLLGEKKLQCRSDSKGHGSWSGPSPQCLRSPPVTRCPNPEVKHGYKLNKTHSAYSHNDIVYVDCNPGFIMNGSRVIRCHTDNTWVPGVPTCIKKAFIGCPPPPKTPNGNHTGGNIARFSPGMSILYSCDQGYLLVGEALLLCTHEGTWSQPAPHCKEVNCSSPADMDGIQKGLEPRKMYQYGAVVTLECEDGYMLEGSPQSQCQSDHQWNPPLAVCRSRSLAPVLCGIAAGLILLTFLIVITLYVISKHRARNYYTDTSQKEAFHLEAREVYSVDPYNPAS

Substance: ConM SOSIP.v7 Env trimer fused to human complement fragment C3d (from UniProt P01024 1002-1303)
- Ca2+ flux of PGT121-expressing Ramos B cells, AUC at 0.01 µg/ml Env-equivalent (tested at 10, 1, 0.1, 0.01 and 0.001 µg/ml); ConM Env alone gave AUC 5: 442 AUC
